Assay results reported in article PMC7618002.

How the values were obtained:
Experiment in all cases: SEC; analytical SEC of the purified protein alone; oligomeric state in solution
[1] = target: WsmE (Streptomyces sp. CB02120-2)
[2] = target: WsmD (Streptomyces sp. CB02120-2)
[3] = target: WsmR KS6 (Streptomyces sp. CB02120-2)
[4] = target: WsmS (Streptomyces sp. CB02120-2)
[5] = target: LnmF

WsmE (enzyme) showed a stoichiometry N [1] of 3.

For WsmD (enzyme), the stoichiometry N [2] was 2.

WsmR KS6 (domain or fragment) showed a stoichiometry N [3] of 2.

WsmS (enzyme) gave a stoichiometry N [4] of 2.

Work on LnmF (enzyme) yielded a stoichiometry N [5] of 3.
